According to PMC9164069, “NADPH–Cytochrome P450 Reductase Mediates the Fatty Acid Desaturation of ω3 and ω6 Desaturases from Mortierella alpina” (Current Issues in Molecular Biology, 2022):

Assays:
NADPH-CytP450R = biological target: T1, NADPH-CytP450R (Homo sapiens, UniProt P16435); assay: absorption shift of Cytb5 on reduction ([…] to […] nm); type: biochemical; settings: pH 7.5, 25 °C; 100 mM Hepes, 150 mM NaCl, 0.25 µM CytP450R, 5 µM human Cytb5, 5 µM NADPH
T1 construct: gene POR; soluble catalytic domain, C-terminal 614 residues (VRESSFV through SLDVWS), N-terminal His6 tag (pET15b), E. coli BL21(DE3), about 70 kDa
T1 sequence (P16435 64-677): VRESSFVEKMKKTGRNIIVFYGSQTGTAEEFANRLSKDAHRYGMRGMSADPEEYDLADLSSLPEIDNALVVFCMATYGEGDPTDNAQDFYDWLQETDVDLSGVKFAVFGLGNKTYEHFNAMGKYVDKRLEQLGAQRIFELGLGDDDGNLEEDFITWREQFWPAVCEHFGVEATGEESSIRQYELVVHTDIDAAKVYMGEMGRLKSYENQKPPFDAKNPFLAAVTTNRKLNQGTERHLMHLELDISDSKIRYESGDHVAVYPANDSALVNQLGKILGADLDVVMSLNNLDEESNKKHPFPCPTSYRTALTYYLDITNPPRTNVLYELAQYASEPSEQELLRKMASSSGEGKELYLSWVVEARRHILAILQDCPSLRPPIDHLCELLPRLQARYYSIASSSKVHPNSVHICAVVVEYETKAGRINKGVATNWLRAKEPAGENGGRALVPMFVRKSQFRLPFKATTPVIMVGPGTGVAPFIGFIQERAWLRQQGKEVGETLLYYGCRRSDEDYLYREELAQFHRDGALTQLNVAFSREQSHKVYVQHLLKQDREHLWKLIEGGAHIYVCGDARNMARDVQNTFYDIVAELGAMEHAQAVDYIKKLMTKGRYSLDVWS

purified protein [1] = substrate: CCCCCC/C=C\CCCCCCCC(=O)SCCNC(=O)CCNC(=O)[C@H](O)C(C)(C)COP(=O)(O)OP(=O)(O)OC[C@H]1O[C@@H](n2cnc3c(N)ncnc32)[C@H](O)[C@@H]1OP(=O)(O)O; assay: purified protein; type: biochemical, Mortierella alpina; settings: pH 7.5, 28 °C, 25 mM Hepes, 150 mM NaCl, 1 µM NADPH, 100 nM desaturase, 0.5 µM human Cytb5, 1 µM human CytP450R, 0.002% Fos-16
purified protein [2] = substrate: CCCCCCCC/C=C\CCCCCCCC(=O)SCCNC(=O)CCNC(=O)[C@H](O)C(C)(C)COP(=O)(O)OP(=O)(O)OC[C@H]1O[C@@H](n2cnc3c(N)ncnc32)[C@H](O)[C@@H]1OP(=O)(O)O; assay: purified protein; type: biochemical, Mortierella alpina; settings: pH 7.5, 28 °C, 25 mM Hepes, 150 mM NaCl, 1 µM NADPH, 100 nM desaturase, 0.5 µM human Cytb5, 1 µM human CytP450R, 0.002% Fos-16
purified protein [3] = substrate: CCCCC/C=C\C/C=C\C/C=C\CCCCC(=O)SCCNC(=O)CCNC(=O)[C@H](O)C(C)(C)COP(=O)(O)OP(=O)(O)OC[C@H]1O[C@@H](n2cnc3c(N)ncnc32)[C@H](O)[C@@H]1OP(=O)(O)O; assay: purified protein; type: biochemical, Mortierella alpina; settings: pH 7.5, 28 °C, 25 mM Hepes, 150 mM NaCl, 1 µM NADPH, 100 nM desaturase, 0.5 µM human Cytb5, 1 µM human CytP450R, 0.002% Fos-16
purified protein [4] = substrate: CCCCC/C=C\C/C=C\C/C=C\C/C=C\CCCC(=O)SCCNC(=O)CCNC(=O)[C@H](O)C(C)(C)COP(=O)(O)OP(=O)(O)OC[C@H]1O[C@@H](n2cnc3c(N)ncnc32)[C@H](O)[C@@H]1OP(=O)(O)O; assay: purified protein; type: biochemical, Mortierella alpina; settings: pH 7.5, 28 °C, 25 mM Hepes, 150 mM NaCl, 1 µM NADPH, 100 nM desaturase, 0.5 µM human Cytb5, 1 µM human CytP450R, 0.002% Fos-16
purified protein [5] = substrate: CCCCC/C=C\C/C=C\CCCCCCCC(=O)SCCNC(=O)CCNC(=O)[C@H](O)C(C)(C)COP(=O)(O)OP(=O)(O)OC[C@H]1O[C@@H](n2cnc3c(N)ncnc32)[C@H](O)[C@@H]1OP(=O)(O)O; assay: purified protein; type: biochemical, Mortierella alpina; settings: pH 7.5, 28 °C, 25 mM Hepes, 150 mM NaCl, 1 µM NADPH, 100 nM desaturase, 0.5 µM human Cytb5, 1 µM human CytP450R, 0.002% Fos-16

Molecule: NC(=O)C1=CN([C@@H]2O[C@H](COP(=O)(O)OP(=O)(O)OC[C@H]3O[C@@H](n4cnc5c(N)ncnc54)[C@H](OP(=O)(O)O)[C@@H]3O)[C@@H](O)[C@H]2O)C=CC1 [NADPH]
- absorption shift of Cytb5 on reduction (412 to 422, 521, 554 nm) (NADPH-CytP450R): when NADPH was added, Cytb5 was instantly reduced

B1: M. alpina ω6 desaturase (Mortierella alpina) (protein)
chain: MAPPNTIDAGLTQRHISTSAAPTSAKPAFERNYQLPEFTIKEIRECIPAHCFERSGLRGLCHVAIDLTWASLLFLAATQIDKFENPLIRYLAWPAYWIMQGIVCTGIWVLAHECGHQSFSTSKTLNNTVGWILHSMLLVPYHSWRISHSKHHKATGHMTKDQVFVPKTRSQVGLPPKENAAAAVQEEDMSVHLDEEAPIVTLFWMVIQFLFGWPAYLIMNASGQDYGRWTSHFHTYSPIFEPRNFFDIIISDLGVLAALGALIYASMQLSLLTVTKYYIVPYLFVNFWLVLITFLQHTDPKLPHYREGAWNFQRGALCTVDRSFGKFLDHMFHGIVHTHVAHHLFSQMPFYHAEEATYHLKKLLGEYYVYDPSPIVVAVWRSFRECRFVEDHGDVVFFKK
notes: membrane desaturase expressed in Pichia pastoris (pPink-HC) with 3C site, ZZ-tag and RGS-His10-tag; tags cut off by rhinovirus 3C protease; Fos-Choline-16 solubilized, IgG Sepharose and size exclusion purified
- Km (purified protein [1]): 3.9 ± 0.9 µM
- kcat (purified protein [1]): 0.00333 ± 0.000167 s⁻¹
- kcat/Km (purified protein [1]): 667 M⁻¹ s⁻¹
- Km (purified protein [2]): 5.4 ± 0.8 µM
- kcat (purified protein [2]): 0.00833 ± 0.000333 s⁻¹
- kcat/Km (purified protein [2]): 1500 M⁻¹ s⁻¹

B2: M. alpina ω3 desaturase (Mortierella alpina) (protein)
chain: MAPPHVVDEQVRRRIVVEDEIKSKKQFERNYVPMDFTIKEIRDAIPAHLFIRDTTKSILHVVKDLVTIAIVFYCATFIETLPSLALRVPAWITYWIIQGTVMVGPWILAHECGHGAFSDSKTINTIFGWVLHSALLVPYQAWAMSHSKHHKGTGSMTKDVVFIPATRSYKGLPALEKPAVEEEVSEQEHHHHEESIFAETPIYTLGALLFVLTFGWPLYLIVNFSGHEAPHWVNHFQTVAPLYEPHQRKNIFYSNCGIVAMGSILTYLSMVFSPLTVFMYYGIPYLGVNAWIVCITYLQHTDPKVPHFRDNEWNFQRGAACTIDRSFGTIVNHLHHHIGDSHQCHHMFSQMPFYNAVEATKYLKAKLGKYYIFDDTPIAKALYRNWRECKFVEDEGDVVFYKH
notes: as for B1
- Km (purified protein [3]): 87.8 ± 9.9 µM
- kcat (purified protein [3]): 0.168 ± 0.00667 s⁻¹
- kcat/Km (purified protein [3]): 2000 M⁻¹ s⁻¹
- Km (purified protein [4]): 157.0 ± 23.8 µM
- kcat (purified protein [4]): 0.0233 ± 0.00167 s⁻¹
- kcat/Km (purified protein [4]): 167 M⁻¹ s⁻¹
- Km (purified protein [5]): 16.0 ± 2.2 µM
- kcat (purified protein [5]): 0.11 ± 0.01 s⁻¹
- kcat/Km (purified protein [5]): 6830 M⁻¹ s⁻¹
